Assay results: patent publication US20120321591A1 (COVX TECHNOLOGIES IRELAND, published 2012)
Where no end group is shown, it is not given here. [ ]: non-standard residue; d: D form. Phe(4-NO2) = N[C@@H](Cc1ccc([N+](=O)[O-])cc1)C(=O)O; Phe(4-COOH) = N[C@@H](Cc1ccc(C(=O)O)cc1)C(=O)O; Bpa = N[C@@H](Cc1ccc(C(=O)c2ccccc2)cc1)C(=O)O; Hyp = O=C(O)[C@@H]1C[C@@H](O)CN1; 0P linker = not defined here; 4P linker = not defined here; ThA = not defined here

T1: human angiopoietin-2 protein (human, UniProt O15123 19-496)
T1 construct: also called Ang-2; Ang2
T1 sequence (looked up): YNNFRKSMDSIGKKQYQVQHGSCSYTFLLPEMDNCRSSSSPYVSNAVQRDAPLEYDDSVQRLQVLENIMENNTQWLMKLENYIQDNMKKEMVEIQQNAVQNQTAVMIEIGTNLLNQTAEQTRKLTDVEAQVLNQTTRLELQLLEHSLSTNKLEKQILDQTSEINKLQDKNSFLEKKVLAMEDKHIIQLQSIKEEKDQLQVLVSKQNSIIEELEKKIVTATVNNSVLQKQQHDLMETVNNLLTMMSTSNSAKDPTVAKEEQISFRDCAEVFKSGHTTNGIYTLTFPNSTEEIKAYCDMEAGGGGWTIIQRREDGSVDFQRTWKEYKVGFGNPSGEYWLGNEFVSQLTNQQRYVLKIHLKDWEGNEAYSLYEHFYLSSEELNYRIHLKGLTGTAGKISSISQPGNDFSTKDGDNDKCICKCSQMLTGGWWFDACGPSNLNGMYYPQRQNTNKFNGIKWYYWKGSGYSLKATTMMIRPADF


Biological target: T1, human angiopoietin-2 protein
Assay: competitive ELISA: Tie-2-Fc binding to coated Ang-2; T
Method: Plates were washed three times with washing buffer (0.1% Tween 20, PBS, pH 7.4) and blocked with Superblock (Scytek), […] at room temperature (“RT”) for 1 hour. […] Plates were washed 3 times with washing buffer. […] Following incubation, 50 ul of 1:5,000 dilution of goat anti-mouse IgG-HRP in Superblock was then added and incubated at RT for one hour. After washing 3 times, […] was added, and incubated for 3-5 minutes. Color development was monitored and stopped with 25 μl of 2 M H₂SO₄. OD450 nm with a correction wavelength of 540 nm was measured.

Binder	IC50
QXYQPLDELDKTXYDQFMLQQG (N-terminal acyl cap; C-terminal amino cap; Kac 2; 0P linker on K11; Nva 13, also called 4041 T) [Compound 4041, peptide plus linker (T)]	1340 nM
QXYQXLDELDKTLYDQFMLQQG (N-terminal acyl cap; C-terminal amino cap; Kac 2; HP 5; 0P linker on K11, also called 4035 T) [Compound 4035, peptide plus linker (T)]	121 nM
QXYQPLDELDXTLYDQFMLQQG (N-terminal acyl cap; C-terminal amino cap; Kac 2; 0P linker on Dab 11, also called 4054 T) [Compound 4054, peptide plus linker (T)]	292 nM
QXYQPLDEKDXTLYDQFMLQQG (N-terminal acyl cap; C-terminal amino cap; Kac 2; 0P linker on K9; Kac 11, also called 4030 T) [Compound 4030, peptide plus linker (T)]	279 nM
QNYQPLDELDK(4P linker)TLYDQFMLQQG-NH2 (reading uncertain; also: N-terminal acyl cap, printed as QNY QPL DEL DK(4P)T LYD QFM LQQ G, also called 4025 T) [Compound 4025, peptide plus linker (T)]	300 nM
QXYQPLDELDKTLYDQFMLQQG (N-terminal acyl cap; C-terminal amino cap; Kac 2; 0P linker on K11, also called 4029 T) [Compound 4029, peptide plus linker (T)]	83.3 nM
QXYQXLDELDKTLYDQFMLQQG (not fully specified; N-terminal acyl cap; C-terminal amino cap; Kac 2; D(HP) 5; 0P linker on K11, also called 4034 T) [Compound 4034, peptide plus linker (T)]	224 nM
QXYQPLDELDKTXYDQFMLQQG (N-terminal acyl cap; C-terminal amino cap; Kac 2; 0P linker on K11; HF 13, also called 4039 T) [Compound 4039, peptide plus linker (T)]	4890 nM

Next, values leading:

IC50	Binder
598 nM	QXYQPLDELDXTLYDQFMLQQG (not fully specified; N-terminal acyl cap; C-terminal amino cap; Kac 2; 0P linker on Dap 11, also called 4055 T) [Compound 4055, peptide plus linker (T)]
92.2 nM	QNYQPLDELDKTL[Bpa]DQFMLQQG-NH2 (not fully specified (residue 11, N-terminus); also: N-terminal acyl cap, acyl not given here, also called 4056 T) [Compound 4056, peptide plus linker (T)]
24.7 nM	QK(Ac)YQ[Hyp]LDE[ThA]DK(0P linker)TL[Phe(4-NO2)]DQFMLQQG-NH2 (not fully specified; reading uncertain; also: N-terminal acyl cap, acyl not given here, also called 4045 T) [Compound 4045, peptide plus linker (T)]
43.3 nM	QK(Ac)YQ[Hyp]LDE[ThA]DK(0P linker)TL[Phe(4-COOH)]DQFMLQQG-NH2 (not fully specified; reading uncertain; also: N-terminal acyl cap, acyl not given here, also called 4047 T) [Compound 4047, peptide plus linker (T)]
33 nM	XQXYQPLDELDKTLYDQFMLQQG (DFB at N-terminus; C-terminal amino cap; Kac 2; 0P linker on K11) [Compound 4050, peptide plus linker (T)]
82.7 nM	QK(Ac)YQ[Hyp]LDE[ThA]DK(0P linker)TL[Bpa]DQFMLQQG-NH2 (not fully specified; reading uncertain; also: N-terminal acyl cap, acyl not given here) [Compound 4046, peptide plus linker (T)]
1340 nM	QXYQPLDELDKTXYDQFMLQQG (N-terminal acyl cap; C-terminal amino cap; Kac 2; 0P linker on K11; HL 13, also called 4042 T) [Compound 4042, peptide plus linker (T)]
82.4 nM	QK(Ac)YQPLDEK(Ac)DK(0P linker)TL[Phe(4-NO2)]DQFMLQQG-NH2 (reading uncertain; also: N-terminal acyl cap, acyl not given here, printed as Q(Kac)Y QPL DE(Kac) DK(0P)T L(NO2)FD QFM LQQ G, also called 4048 T) [Compound 4048, peptide plus linker (T)]
28.4 nM	XQXYQPLDELDKTLYDQFMLQQG (DCB at N-terminus; C-terminal amino cap; Kac 2; 0P linker on K11, also called 4049 T) [Compound 4049, peptide plus linker (T)]
134 nM	XQXYQPLDELDKTLYDQFMLQQG (Amido 2-PEG at N-terminus; C-terminal amino cap; Kac 2; 0P linker on K11, also called 4052 T) [Compound 4052, peptide plus linker (T)]
14.3 nM	XQXYQPLDELDKTLYDQFMLQQG (PyC at N-terminus; C-terminal amino cap; Kac 2; 0P linker on K11, also called 4051 T) [Compound 4051, peptide plus linker (T)]
